Measured values reported in patent CN116262790A (TAIZE HUIKANG BIOMEDICAL CO LTD; BEIJING MIANYI FANGZHOU …, dated 2023).

T1: 人CD27蛋白 (Cat: 10039-H03H, Sino Biological Inc.) (human, UniProt P26842 20-192)
T1 construct: Bought recombinant protein coated on the SPR chip
T1 sequence (looked up): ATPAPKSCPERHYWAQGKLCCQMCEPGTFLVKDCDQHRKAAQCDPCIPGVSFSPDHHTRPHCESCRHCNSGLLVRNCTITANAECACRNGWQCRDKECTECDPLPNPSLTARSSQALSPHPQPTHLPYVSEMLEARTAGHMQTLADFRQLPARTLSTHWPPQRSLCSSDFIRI

T2: 人CD27 (HEK::CD27细胞表达) (human, UniProt P26842 20-260)
T2 construct: whole, on cells; also called hCD27; 表达人CD27的细胞
T2 sequence (looked up): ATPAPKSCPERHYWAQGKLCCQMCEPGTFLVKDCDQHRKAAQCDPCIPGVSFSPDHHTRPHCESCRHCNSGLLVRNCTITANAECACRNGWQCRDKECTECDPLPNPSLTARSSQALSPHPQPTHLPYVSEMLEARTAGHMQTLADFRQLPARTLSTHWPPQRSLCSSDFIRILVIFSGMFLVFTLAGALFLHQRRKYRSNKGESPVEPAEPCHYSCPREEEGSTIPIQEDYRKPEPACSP


Columns and labels:
[1] = biological target: T1, 人CD27蛋白 (Cat: 10039-H03H, Sino …); experiment: SPR (Reichert4), human CD27 protein on chip, antibody at 1.25e-8 as analyte
[2] = biological target: T1, 人CD27蛋白 (Cat: 10039-H03H, Sino …); experiment: SPR (Reichert4), human CD27 protein on chip, antibody at 2.50e-8 as analyte
[3] = biological target: T1, 人CD27蛋白 (Cat: 10039-H03H, Sino …); experiment: SPR (Reichert4), human CD27 protein on chip, antibody at 5.00e-8 as analyte
[4] = biological target: T1, 人CD27蛋白 (Cat: 10039-H03H, Sino …); experiment: SPR (Reichert4), human CD27 protein on chip, antibody at 6.25e-9 as analyte
[5] = biological target: 人CD27 (HEK::CD27细胞表达) (human) (UniProt P26842); experiment: flow cytometry on cells expressing human CD27; set-up: concentration or dose not given beside the values
人CD27 (HEK::CD27细胞表达) = biological target: T2, 人CD27 (HEK::CD27细胞表达); experiment: flow cytometry on HEK::CD27 cells, 10 ng and 100 ng antibody

Kd [1] | koff [1] | kon [1] | Kd [2] | koff [2] | kon [2] | Kd [3] | koff [3] | kon [3] | Kd [4] | koff [4] | kon [4] | 结合率 [5] | binding result (人CD27 (HEK::CD27细胞表达)) | Binder
0.00185 nM | 2.14e-07 s⁻¹ | 116000 M⁻¹ s⁻¹ | 0.00185 nM | 2.14e-07 s⁻¹ | 116000 M⁻¹ s⁻¹ | 0.00185 nM | 2.14e-07 s⁻¹ | 116000 M⁻¹ s⁻¹ | 0.00185 nM | 2.14e-07 s⁻¹ | 116000 M⁻¹ s⁻¹ | – | – | Varlilumab (antibody, V domains shown) VH: QVQLVESGGGVVQPGRSLRLSCAASGFTFSSYDMHWVRQAPGKGLEWVAVIWYDGSNKYYADSVKGRFTISRDNSKNTLYLQMNSLRAEDTAVYYCARGSGNWGFFDYWGQGTLVTVSS VL: DIQMTQSPSSLSASVGDRVTITCRASQGISRWLAWYQQKPEKAPKSLIYAASSLQSGVPSRFSGSGSGTDFTLTISSLQPEDFATYYCQQYNTYPRTFGQGTKVEIKR
0.514 nM | 9.69e-05 s⁻¹ | 188000 M⁻¹ s⁻¹ | 0.514 nM | 9.69e-05 s⁻¹ | 188000 M⁻¹ s⁻¹ | 0.514 nM | 9.69e-05 s⁻¹ | 188000 M⁻¹ s⁻¹ | 0.514 nM | 9.69e-05 s⁻¹ | 188000 M⁻¹ s⁻¹ | > 85% | – | 6D8 (antibody, V domains shown, also called 6D8抗体; 鼠抗人CD27单克隆抗体6D8) VH: QIQLVQSGPELKKPGETVKISCKASGYTFTNYGMNWVKQAPGKGLKWMGWINTNTGEPTYADDFKGRFAFSLETSATTAYLQINNLKNEDTATYFCAREGDGFDSWGQGTTLTVSS VL: QFVLTQSPAIMSASPGEKVTMTCSATSSVNYMHWYQQKSGTSPKRWIYDTSRLASGVPARFSGSGSGTSYSLTISSMEAEDAATYYCQQWNTNPWTFGGGTKLEIK
– | – | – | – | – | – | – | – | – | – | – | – | – | binds | 6D8-G98A (antibody, human IgG4, V domains shown, also called 嵌合的6D8-G98A; 6D8-G98A(人鼠嵌合抗体)) VH: QIQLVQSGPELKKPGETVKISCKASGYTFTNYGMNWVKQAPGKGLKWMGWINTNTGEPTYADDFKGRFAFSLETSATTAYLQINNLKNEDTATYFCAREGDAFDSWGQGTTLTVSS VL: QFVLTQSPAIMSASPGEKVTMTCSATSSVNYMHWYQQKSGTSPKRWIYDTSRLASGVPARFSGSGSGTSYSLTISSMEAEDAATYYCQQWNTNPWTFGGGTKLEIK
